One molecule from article PMC4110903 (Methods in enzymology, 2014) can be followed below.

In the assay the target is T1, MBP-tagged full length human HSPC300 (human, UniProt Q8WUW1 1-75).
T1 sequence (looked up): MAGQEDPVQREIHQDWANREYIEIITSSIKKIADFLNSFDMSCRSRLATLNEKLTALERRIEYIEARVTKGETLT
The assay is described as follows: reconstitution and co-elution on anion exchange chromatography.

B1: MBP-tagged WAVE217: human WAVE1 (1-217)-(GGS)6-(485-559) (domain or fragment)
chain: MPLVKRNIDPRHLCHTALPRGIKNELECVTNISLANIIRQLSSLSKYAEDIFGELFNEAHSFSFRVNSLQERVDRLSVSVTQLDPKEEELSLQDITMRKAFRSSTIQDQQLFDRKTLPIPLQETYDVCEQPPPLNILTPYRDDGKEGLKFYTNPSYFFDLWKEKMLQDTEDKRKEKRKQKQKNLDRPHEPEKVPRAPHDRRREWQKLAQGPELAEDDGGSGGSGGSGGSGGSGGSKRHPSTLPVISDARSVLLEAIRKGIQLRKVEEQREQEAKHERIENDVATILSRRIAVEYSDSEDDSEFDEVDWLE
On to B1, for which the binding result is “binds”.
